Here are results for ten molecules from PMC5779224 (2017).

Experiment [1] deals with T1, AnkB_MBD (AnkB ANK repeats only, aa 28–827) (human, UniProt Q01484-2 28-827).
T1 chain: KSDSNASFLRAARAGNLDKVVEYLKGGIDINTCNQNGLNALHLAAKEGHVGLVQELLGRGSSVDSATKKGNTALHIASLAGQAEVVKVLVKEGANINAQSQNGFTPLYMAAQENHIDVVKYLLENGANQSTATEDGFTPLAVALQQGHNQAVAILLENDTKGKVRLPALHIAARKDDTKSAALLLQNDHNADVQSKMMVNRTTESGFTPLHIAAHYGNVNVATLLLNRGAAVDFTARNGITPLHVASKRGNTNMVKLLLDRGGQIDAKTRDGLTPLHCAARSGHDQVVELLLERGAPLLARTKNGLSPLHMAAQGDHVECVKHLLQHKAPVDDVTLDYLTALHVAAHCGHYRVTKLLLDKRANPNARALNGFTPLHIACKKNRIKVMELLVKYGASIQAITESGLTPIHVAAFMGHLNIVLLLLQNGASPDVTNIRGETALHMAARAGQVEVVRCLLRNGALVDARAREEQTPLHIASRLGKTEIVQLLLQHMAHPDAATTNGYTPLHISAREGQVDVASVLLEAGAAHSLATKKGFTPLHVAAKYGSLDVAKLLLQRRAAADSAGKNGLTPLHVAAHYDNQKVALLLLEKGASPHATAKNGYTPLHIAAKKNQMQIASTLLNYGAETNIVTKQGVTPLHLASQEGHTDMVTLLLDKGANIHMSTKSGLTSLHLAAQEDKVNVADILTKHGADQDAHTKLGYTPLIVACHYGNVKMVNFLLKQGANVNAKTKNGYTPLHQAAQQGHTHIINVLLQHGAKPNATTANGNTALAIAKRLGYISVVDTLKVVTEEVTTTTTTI
Briefly: ITC. For orientation: ITC needs no label: the signal is the heat of the interaction.

The target in experiment [2] is T2, AnkB 28–847 (MBD + partial AI-c) (human, UniProt Q01484-2 28-847).
T2 chain: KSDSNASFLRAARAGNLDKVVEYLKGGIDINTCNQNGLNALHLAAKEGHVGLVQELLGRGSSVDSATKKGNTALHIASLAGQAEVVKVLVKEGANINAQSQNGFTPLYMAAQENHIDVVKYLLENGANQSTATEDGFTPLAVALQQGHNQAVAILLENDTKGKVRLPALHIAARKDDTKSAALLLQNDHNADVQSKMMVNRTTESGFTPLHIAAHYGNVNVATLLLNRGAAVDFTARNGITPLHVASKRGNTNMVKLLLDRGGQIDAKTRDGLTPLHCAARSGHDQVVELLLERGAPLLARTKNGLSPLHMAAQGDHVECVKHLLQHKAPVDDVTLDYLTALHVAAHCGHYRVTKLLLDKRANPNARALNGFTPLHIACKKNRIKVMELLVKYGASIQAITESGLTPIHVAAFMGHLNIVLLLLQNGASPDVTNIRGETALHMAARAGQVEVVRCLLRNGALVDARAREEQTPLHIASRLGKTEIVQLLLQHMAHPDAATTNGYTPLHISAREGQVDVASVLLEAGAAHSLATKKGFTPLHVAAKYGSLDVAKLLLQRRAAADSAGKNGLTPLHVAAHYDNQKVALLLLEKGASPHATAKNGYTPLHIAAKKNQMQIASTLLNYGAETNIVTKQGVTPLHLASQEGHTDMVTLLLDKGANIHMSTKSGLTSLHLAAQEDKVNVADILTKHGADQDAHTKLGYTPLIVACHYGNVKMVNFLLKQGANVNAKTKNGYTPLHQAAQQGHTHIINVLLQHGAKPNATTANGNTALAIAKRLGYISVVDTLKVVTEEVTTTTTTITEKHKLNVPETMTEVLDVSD
Briefly: ITC.

In experiment [3] the target is T3, AnkG 38–855 (AnkG MBD-AI-c protein; MBD + partial AI-c) (rat, UniProt O70511-1 38-855).
T3 chain: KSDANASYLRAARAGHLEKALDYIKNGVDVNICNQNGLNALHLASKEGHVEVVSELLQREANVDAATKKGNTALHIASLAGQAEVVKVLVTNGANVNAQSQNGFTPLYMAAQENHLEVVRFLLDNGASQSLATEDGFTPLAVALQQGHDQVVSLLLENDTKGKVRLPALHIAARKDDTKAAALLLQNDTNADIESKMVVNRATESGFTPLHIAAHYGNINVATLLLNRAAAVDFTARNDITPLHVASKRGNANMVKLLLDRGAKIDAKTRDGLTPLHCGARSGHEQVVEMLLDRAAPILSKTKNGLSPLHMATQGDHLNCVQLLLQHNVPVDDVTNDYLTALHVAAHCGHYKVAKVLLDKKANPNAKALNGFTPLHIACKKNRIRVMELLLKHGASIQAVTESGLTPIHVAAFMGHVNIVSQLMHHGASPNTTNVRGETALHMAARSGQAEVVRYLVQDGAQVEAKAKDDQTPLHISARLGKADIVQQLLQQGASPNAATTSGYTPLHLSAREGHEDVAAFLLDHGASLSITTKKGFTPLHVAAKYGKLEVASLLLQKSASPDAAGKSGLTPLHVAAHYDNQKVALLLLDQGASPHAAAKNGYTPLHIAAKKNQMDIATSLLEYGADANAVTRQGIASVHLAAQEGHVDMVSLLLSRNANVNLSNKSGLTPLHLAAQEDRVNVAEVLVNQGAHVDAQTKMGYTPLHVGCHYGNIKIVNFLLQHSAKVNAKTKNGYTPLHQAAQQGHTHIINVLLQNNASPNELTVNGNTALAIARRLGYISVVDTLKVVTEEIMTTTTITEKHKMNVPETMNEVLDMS
Briefly: ITC.

Experiment [4] concerns the target T4, AnkB 28–965 (MBD + AI-c + AI-b) (human, UniProt Q01484-2 28-965).
T4 chain: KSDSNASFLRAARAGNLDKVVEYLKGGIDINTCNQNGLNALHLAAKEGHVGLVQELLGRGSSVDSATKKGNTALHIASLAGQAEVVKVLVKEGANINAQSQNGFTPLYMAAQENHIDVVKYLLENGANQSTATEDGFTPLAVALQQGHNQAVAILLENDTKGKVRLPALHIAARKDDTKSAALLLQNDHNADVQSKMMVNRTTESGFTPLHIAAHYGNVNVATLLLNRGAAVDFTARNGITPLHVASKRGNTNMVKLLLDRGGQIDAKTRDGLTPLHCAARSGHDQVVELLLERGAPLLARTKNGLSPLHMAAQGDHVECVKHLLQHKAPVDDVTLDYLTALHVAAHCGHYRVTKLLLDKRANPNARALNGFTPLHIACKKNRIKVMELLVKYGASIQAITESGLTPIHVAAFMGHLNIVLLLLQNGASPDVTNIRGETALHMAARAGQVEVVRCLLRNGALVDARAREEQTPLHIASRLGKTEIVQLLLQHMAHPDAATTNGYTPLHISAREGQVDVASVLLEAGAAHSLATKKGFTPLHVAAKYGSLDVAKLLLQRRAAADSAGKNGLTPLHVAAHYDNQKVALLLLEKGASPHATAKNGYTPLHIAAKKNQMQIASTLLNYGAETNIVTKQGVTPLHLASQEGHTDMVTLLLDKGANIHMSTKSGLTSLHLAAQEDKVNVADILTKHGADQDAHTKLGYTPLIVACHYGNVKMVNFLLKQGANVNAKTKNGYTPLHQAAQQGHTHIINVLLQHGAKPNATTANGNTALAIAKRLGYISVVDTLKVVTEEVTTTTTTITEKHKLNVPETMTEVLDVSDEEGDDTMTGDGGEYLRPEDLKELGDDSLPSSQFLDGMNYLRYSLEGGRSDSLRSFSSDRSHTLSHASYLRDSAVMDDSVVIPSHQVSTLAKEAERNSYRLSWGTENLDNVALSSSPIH
The experiment in a line: ITC.

For experiment [5], the target named is T5, AnkG 38–903 (MBD + AI-c + AI-b) (rat, UniProt O70511-1 38-903).
T5 chain: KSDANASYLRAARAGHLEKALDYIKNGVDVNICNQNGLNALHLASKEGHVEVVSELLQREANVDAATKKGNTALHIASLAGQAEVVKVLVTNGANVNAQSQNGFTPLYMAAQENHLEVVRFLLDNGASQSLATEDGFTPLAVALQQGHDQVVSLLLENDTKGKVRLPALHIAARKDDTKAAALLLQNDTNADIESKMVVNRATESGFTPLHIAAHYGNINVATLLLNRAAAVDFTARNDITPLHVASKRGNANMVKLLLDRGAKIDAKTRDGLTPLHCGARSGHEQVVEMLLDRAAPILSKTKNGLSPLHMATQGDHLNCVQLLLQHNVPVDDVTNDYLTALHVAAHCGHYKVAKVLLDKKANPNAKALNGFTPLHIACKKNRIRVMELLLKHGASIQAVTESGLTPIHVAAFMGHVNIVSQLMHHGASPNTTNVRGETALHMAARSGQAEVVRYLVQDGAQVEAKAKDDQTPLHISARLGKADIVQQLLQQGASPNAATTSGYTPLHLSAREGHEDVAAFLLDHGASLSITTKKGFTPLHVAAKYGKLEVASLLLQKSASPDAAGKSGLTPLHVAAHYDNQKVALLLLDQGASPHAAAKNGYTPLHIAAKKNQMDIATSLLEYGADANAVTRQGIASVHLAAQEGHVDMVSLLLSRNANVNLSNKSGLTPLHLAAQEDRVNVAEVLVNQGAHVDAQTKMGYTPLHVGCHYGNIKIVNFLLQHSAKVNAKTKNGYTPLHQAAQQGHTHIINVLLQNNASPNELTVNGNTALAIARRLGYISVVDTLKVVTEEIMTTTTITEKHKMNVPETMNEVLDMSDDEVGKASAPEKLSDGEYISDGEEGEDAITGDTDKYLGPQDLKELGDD
The experiment in a line: ITC.

Experiment [6] deals with T2, AnkB 28–847 (MBD + partial AI-c). Briefly: ITC; AnkB 874-965.

B1: AnkB_AI-c Leu843Gln (domain or fragment)
chain: TEKHKLNVPETMTEVQDVSDEEGDD
The term Kd denotes the concentration at which binding is half-saturated. In turn, B1 showed a Kd in experiment [1] of 3.9 µM.

B2: AnkB 828-896 (protein)
chain: TEKHKLNVPETMTEVLDVSDEEGDDTMTGDGGEYLRPEDLKELGDDSLPSSQFLDGMNYLRYSLEGGRS
Turning to B2, in experiment [2], the Kd was 2.7 µM.

B3: AnkG_AI-b (aa 875–903) (domain or fragment)
chain: SDGEEGEDAITGDTDKYLGPQDLKELGDD
For B3, the Kd in experiment [3] was found to be 3.5 µM.

B4: AnkB_AI-c Asn834Lys (domain or fragment)
chain: TEKHKLKVPETMTEVLDVSDEEGDD
B4 came in with a Kd in experiment [1] of 2.7 µM.

B5: Nav1.2 (aa 1035–1129) (domain or fragment)
chain: KALDEIKPLEDLNNKKDSCISNHTTIEIGKDLNYLKDGNGTTSGIGSSVEKYVVDESDYMSFINNPSLTVTVPIAVGESDFENLNTEEFSSESDM
Regarding B5, the equilibrium dissociation constant (Kd) came out at 5.8 µM in experiment [4], 1.5 µM in experiment [5] and 0.25 µM in experiment [3].

B6: AnkB 874-896 (peptide)
chain: SLPSSQFLDGMNYLRYSLEGGRS
Turning to B6, the dissociation constant (Kd) in experiment [2] worked out at 13 µM.

B7: AnkG 861-903 (peptide)
chain: KASAPEKLSDGEYISDGEEGEDAITGDTDKYLGPQDLKELGDD
For B7, the Kd in experiment [3] was determined as 1.1 µM.

B8: AnkB_AI-b Tyr886Ala (domain or fragment)
chain: EDLKELGDDSLPSSQFLDGMNALRYSLEGGRS
In the case of B8, the Kd in experiment [2] came to 16 µM.

B9: AnkB_AI-c Met839Gln (domain or fragment)
chain: TEKHKLNVPETQTEVLDVSDEEGDD
B9 displayed a Kd in experiment [1] of 4.4 µM.

B10: AnkB AI-b fragment with residues 865 to 873 deleted (domain or fragment)
chain: SLPSSQFLDGMNYLRYSLEGGRS
Turning to B10, the Kd in experiment [6] stood at 17 µM.
